Experimental data: patent publication US20180155451A1 (published 2018)

B1: GpH7-A5/GpH7-B3 variant K326_10E/GpL16-k0 (antibody, human IgG1, kappa)
heavy 1: not shown
heavy 2: not shown
light: DIVMTQSPLSLPVTPGEPASISCQASESLVHSNRNTYLHWYLQKPGQSPQLLIYKVSNRFSGVPDRFSGSGSGTDFTLKISRVEAEDVGVYYCSQNTHVPPTFGQGTKVEIERTVAAPSVFIFPPSDEQLKSGTASVVCLLNNFYPREAKVQWKVDNALQSGNSQESVTEQDSKDSTYSLSSTLTLSKADYEKHKVYACEVTHQGLSSPVTKSFNRGEC
notes: heterodimerized IgG1, mutation in one H chain only; also called He Ab
B2: GpH7-A5/GpH7-B3 variant K326_14T/GpL16-k0 (antibody, human IgG1, kappa)
heavy 1: not shown
heavy 2: not shown
light: B1 light
notes: as for B1
B3: GpH7-A5/GpH7-B3 variant K326_15Y/GpL16-k0 (antibody, human IgG1, kappa)
heavy 1: not shown
heavy 2: not shown
light: B1 light
notes: as for B1
B4: GpH7-A5/GpH7-B3 variant K326_19Q/GpL16-k0 (antibody, human IgG1, kappa)
heavy 1: not shown
heavy 2: not shown
light: B1 light
notes: as for B1
B5: GpH7-A5/GpH7-B3 variant K334_02A/GpL16-k0 (antibody, human IgG1, kappa)
heavy 1: not shown
heavy 2: not shown
light: B1 light
notes: as for B1
B6: GpH7-A5/GpH7-B3 variant K334_03V/GpL16-k0 (antibody, human IgG1, kappa)
heavy 1: not shown
heavy 2: not shown
light: B1 light
notes: as for B1
B7: GpH7-A5/GpH7-B3 variant K334_04F/GpL16-k0 (antibody, human IgG1, kappa)
heavy 1: not shown
heavy 2: not shown
light: B1 light
notes: as for B1
B8: GpH7-A5/GpH7-B3 variant K334_05P/GpL16-k0 (antibody, human IgG1, kappa)
heavy 1: not shown
heavy 2: not shown
light: B1 light
notes: as for B1
B9: GpH7-A5/GpH7-B3 variant K334_07I/GpL16-k0 (antibody, human IgG1, kappa)
heavy 1: not shown
heavy 2: not shown
light: B1 light
notes: as for B1
B10: GpH7-A5/GpH7-B3 variant K334_08L/GpL16-k0 (antibody, human IgG1, kappa)
heavy 1: not shown
heavy 2: not shown
light: B1 light
notes: as for B1
B11: GpH7-A5/GpH7-B3 variant K334_09D/GpL16-k0 (antibody, human IgG1, kappa)
heavy 1: not shown
heavy 2: not shown
light: B1 light
notes: as for B1
B12: GpH7-A5/GpH7-B3 variant K334_10E/GpL16-k0 (antibody, human IgG1, kappa)
heavy 1: not shown
heavy 2: not shown
light: B1 light
notes: as for B1
B13: GpH7-A5/GpH7-B3 variant K334_13S/GpL16-k0 (antibody, human IgG1, kappa)
heavy 1: not shown
heavy 2: not shown
light: B1 light
notes: as for B1
B14: GpH7-A5/GpH7-B3 variant K334_14T/GpL16-k0 (antibody, human IgG1, kappa)
heavy 1: not shown
heavy 2: not shown
light: B1 light
notes: as for B1
B15: GpH7-A5/GpH7-B3 variant K334_15Y/GpL16-k0 (antibody, human IgG1, kappa)
heavy 1: not shown
heavy 2: not shown
light: B1 light
notes: as for B1
B16: GpH7-A5/GpH7-B3 variant K334_16H/GpL16-k0 (antibody, human IgG1, kappa)
heavy 1: not shown
heavy 2: not shown
light: B1 light
notes: as for B1
B17: GpH7-A5/GpH7-B3 variant K334_18N/GpL16-k0 (antibody, human IgG1, kappa)
heavy 1: not shown
heavy 2: not shown
light: B1 light
notes: as for B1
B18: GpH7-A5/GpH7-B3 variant K334_19Q/GpL16-k0 (antibody, human IgG1, kappa)
heavy 1: not shown
heavy 2: not shown
light: B1 light
notes: as for B1
B19: GpH7-A5/GpH7-B3 variant Q295_02A/GpL16-k0 (antibody, human IgG1, kappa)
heavy 1: not shown
heavy 2: not shown
light: B1 light
notes: as for B1
B20: GpH7-A5/GpH7-B3 variant Q295_10E/GpL16-k0 (antibody, human IgG1, kappa)
heavy 1: not shown
heavy 2: not shown
light: B1 light
notes: as for B1
B21: GpH7-A5/GpH7-B3 variant Q295_14T/GpL16-k0 (antibody, human IgG1, kappa)
heavy 1: not shown
heavy 2: not shown
light: B1 light
notes: as for B1
B22: GpH7-A5/GpH7-B3 variant S239_09D/GpL16-k0 (antibody, human IgG1, kappa)
heavy 1: not shown
heavy 2: not shown
light: B1 light
notes: as for B1
B23: GpH7-A5/GpH7-B3 variant S267_02A/GpL16-k0 (antibody, human IgG1, kappa)
heavy 1: not shown
heavy 2: not shown
light: B1 light
notes: as for B1
B24: GpH7-A5/GpH7-B3 variant S267_09D/GpL16-k0 (antibody, human IgG1, kappa)
heavy 1: not shown
heavy 2: not shown
light: B1 light
notes: as for B1
B25: GpH7-A5/GpH7-B3 variant S298_14T/GpL16-k0 (antibody, human IgG1, kappa)
heavy 1: not shown
heavy 2: not shown
light: B1 light
notes: as for B1
B26: GpH7-A5/GpH7-B3 variant S337_09D/GpL16-k0 (antibody, human IgG1, kappa)
heavy 1: not shown
heavy 2: not shown
light: B1 light
notes: as for B1
B27: GpH7-A5/GpH7-B3 variant S337_10E/GpL16-k0 (antibody, human IgG1, kappa)
heavy 1: not shown
heavy 2: not shown
light: B1 light
notes: as for B1
B28: GpH7-B3 variant S337_18N/GpL16-k0 (antibody, human IgG1, kappa)
heavy: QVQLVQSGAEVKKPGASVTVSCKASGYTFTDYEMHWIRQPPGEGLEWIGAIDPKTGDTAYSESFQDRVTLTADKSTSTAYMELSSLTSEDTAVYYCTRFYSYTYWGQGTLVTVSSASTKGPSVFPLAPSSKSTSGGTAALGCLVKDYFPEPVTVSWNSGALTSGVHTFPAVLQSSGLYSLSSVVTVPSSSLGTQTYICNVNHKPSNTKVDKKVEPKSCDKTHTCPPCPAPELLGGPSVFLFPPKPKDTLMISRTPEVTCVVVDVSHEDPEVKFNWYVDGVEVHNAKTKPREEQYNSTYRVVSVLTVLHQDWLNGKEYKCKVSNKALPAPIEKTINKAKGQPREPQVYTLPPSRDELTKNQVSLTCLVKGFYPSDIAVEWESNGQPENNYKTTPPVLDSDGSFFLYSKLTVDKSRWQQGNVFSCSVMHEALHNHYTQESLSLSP
light: B1 light
notes: homodimerized IgG1, mutation in both H chains; also called Ho Ab
B29: GpH7-B3 variant T335_07I/GpL16-k0 (antibody, human IgG1, kappa)
heavy: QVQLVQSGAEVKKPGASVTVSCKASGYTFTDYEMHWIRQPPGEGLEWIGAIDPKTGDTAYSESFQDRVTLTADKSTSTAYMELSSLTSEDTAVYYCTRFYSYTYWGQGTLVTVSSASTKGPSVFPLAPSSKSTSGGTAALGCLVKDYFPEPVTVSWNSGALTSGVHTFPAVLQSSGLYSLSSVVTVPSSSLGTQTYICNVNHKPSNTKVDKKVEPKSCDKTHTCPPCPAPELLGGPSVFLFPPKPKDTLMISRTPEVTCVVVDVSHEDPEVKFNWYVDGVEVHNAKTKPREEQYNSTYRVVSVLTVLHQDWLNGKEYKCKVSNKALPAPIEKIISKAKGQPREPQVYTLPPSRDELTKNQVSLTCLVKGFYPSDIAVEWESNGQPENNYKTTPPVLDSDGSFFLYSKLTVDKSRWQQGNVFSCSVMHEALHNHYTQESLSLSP
light: B1 light
notes: as for B28
B30: GpH7-B3 variant T335_10E/GpL16-k0 (antibody, human IgG1, kappa)
heavy: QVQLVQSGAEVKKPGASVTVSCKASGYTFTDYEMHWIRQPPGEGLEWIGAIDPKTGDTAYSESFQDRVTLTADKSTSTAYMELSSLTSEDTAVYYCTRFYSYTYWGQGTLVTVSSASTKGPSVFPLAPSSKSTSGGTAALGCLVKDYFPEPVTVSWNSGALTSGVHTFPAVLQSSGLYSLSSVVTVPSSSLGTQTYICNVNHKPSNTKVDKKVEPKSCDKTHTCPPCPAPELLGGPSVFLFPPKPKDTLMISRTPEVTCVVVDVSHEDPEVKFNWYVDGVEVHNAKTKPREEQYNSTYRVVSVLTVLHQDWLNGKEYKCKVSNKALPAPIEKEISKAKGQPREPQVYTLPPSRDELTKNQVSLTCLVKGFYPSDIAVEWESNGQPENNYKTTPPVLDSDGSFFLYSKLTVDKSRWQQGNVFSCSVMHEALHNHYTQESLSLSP
light: B1 light
notes: as for B28

Target: T1, FcγRIIIa extracellular domain with C-terminal His tag (human, UniProt P08637 17-208)
T1 construct: extracellular domain; also called FcgRIIIa; 3a
Test: SPR, relative to GpH7-A5/GpH7-B3/GpL16-k0

T1 sequence (P08637 17-208): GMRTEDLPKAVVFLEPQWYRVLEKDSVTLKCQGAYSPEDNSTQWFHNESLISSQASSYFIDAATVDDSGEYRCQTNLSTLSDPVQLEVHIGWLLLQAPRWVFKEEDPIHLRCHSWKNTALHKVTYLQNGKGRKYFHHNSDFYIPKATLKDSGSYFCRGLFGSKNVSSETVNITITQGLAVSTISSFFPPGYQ

Binder	He/Con_3a
B1	124 % of control (=100)
B2	126 % of control (=100)
B3	112 % of control (=100)
B4	106 % of control (=100)
B5	147 % of control (=100)
B6	150 % of control (=100)
B7	148 % of control (=100)
B8	134 % of control (=100)
B9	151 % of control (=100)
B10	143 % of control (=100)
B11	160 % of control (=100)
B12	181 % of control (=100)
B13	145 % of control (=100)
B14	141 % of control (=100)
B15	141 % of control (=100)
B16	134 % of control (=100)
B17	136 % of control (=100)
B18	136 % of control (=100)
B19	106 % of control (=100)
B20	100 % of control (=100)
B21	115 % of control (=100)
B22	166 % of control (=100)
B23	150 % of control (=100)
B24	181 % of control (=100)
B25	113 % of control (=100)
B26	110 % of control (=100)
B27	105 % of control (=100)

Target: T1, FcγRIIIa extracellular domain with …
Test: SPR, relative to GpH7-B3/GpL16-k0

Binder	Ho/Con_3a
B28	102 % of control (=100)
B29	107 % of control (=100)
B30	102 % of control (=100)
